Data on two molecules can be found in publication PMC2860604.

Series [1] has as its target Wildtype (WT) construct of bZIP domain of human Jun (human). As to the kind of experiment: SEC-MALS.
The next series has as its target T1, Jun bZIP ΔL543 (human, UniProt P05412 251-293).
T1 chain: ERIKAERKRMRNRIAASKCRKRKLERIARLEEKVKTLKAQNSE
Description: ITC. (Isothermal titration calorimetry measures the heat released or taken up as one component is titrated into another.)

The target in a further series is Jun bZIP domain WT (human, UniProt P05412 252-315). As to the kind of experiment: ITC.
Sequence of Jun bZIP domain WT (P05412 252-315): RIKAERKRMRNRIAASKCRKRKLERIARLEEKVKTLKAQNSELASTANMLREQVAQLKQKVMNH
A further series deals with Jun bZIP ΔL5 (human, UniProt P05412 251-307). Description: ITC.
The target in another series is T2, Jun bZIP ΔL54 (human, UniProt P05412 251-300).
T2 chain: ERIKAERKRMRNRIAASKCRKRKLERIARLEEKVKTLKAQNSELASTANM
As to the kind of experiment: ITC.

The next series deals with T3, Jun bZIP ΔL5432 (human, UniProt P05412 251-286).
T3 chain: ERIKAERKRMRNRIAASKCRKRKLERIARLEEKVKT
Description: ITC.

The target in a further series is T4, Jun bZIP ΔL54321 (human, UniProt P05412 251-279).
T4 chain: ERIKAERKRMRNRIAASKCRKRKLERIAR
Description: ITC.

As usually defined, the stoichiometry N is the number of molecules, sites or subunits per partner or assembly. What is called Kd is the concentration at which binding is half-saturated.

Turning to “Wildtype (WT) construct of bZIP domain of human Jun (domain or fragment)”, the stoichiometry N in series [1] worked out at 2.

B1: TRE duplex (dsDNA)
DNA 1: CGCGTGACTCACCCC
DNA 2: GGGGTGAGTCACGCG
On to B1, for which the Kd is 14.8 ± 1.67 µM with Jun bZIP ΔL543, 0.25 ± 0.01 µM with Jun bZIP domain WT, 1.26 ± 0.21 µM with Jun bZIP ΔL5 and 6.14 ± 0.27 µM in the series with Jun bZIP ΔL54. The binding result with Jun bZIP ΔL5432 and with Jun bZIP ΔL54321 was “no binding” each time.
